For 57 molecules, IC50 results are on record in patent US20220119492A1 (MEDIKINE, published 2022).

Bridge positions count the residues as written; N and C are the ends. Ends that are not written are not given here.

The assay deals with T1, human IL-2Rβ (CD122 protein, Fc Tag) (27-239) (human, UniProt P14784 27-239).
T1 construct: range 27-239; Bought protein; also called hu-IL-2Rβ subunit; IL-2Rβ subunit; not shown: Fc tag of the bought protein
T1 sequence (looked up): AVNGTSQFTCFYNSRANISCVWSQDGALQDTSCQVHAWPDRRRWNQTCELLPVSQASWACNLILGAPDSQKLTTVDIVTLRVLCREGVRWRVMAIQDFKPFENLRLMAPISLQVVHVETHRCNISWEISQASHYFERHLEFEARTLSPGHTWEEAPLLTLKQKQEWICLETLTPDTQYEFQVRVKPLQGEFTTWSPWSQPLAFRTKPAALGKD
Put plainly: phage ELISA competition. The procedure, abridged:
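In this competitive binding ELISA, test ligands compete with a phage tracer for human IL-2Rβ-Fc, and IC50 is calculated from the absorbance signal over the ligand dilution series. A 50 μL volume of phage tracer was added without washing and left for 45 min at 4° C. TMB was used to detect bound phage for 1 to 15 min at 25° C, after which stop solution was added and absorbance was read at 450 nm.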
On the technique in general: An ELISA detects its analyte on a solid surface through an enzyme-linked reagent.

On to WEKLQNWYPCWIAQMGELCDLE [SEQ ID NO 2800], for which the half-maximal inhibitory concentration (IC50) (usually the concentration at which inhibition is half-maximal) was < 100 µM.

For the molecule QNASKGWYPCWIAHVGELCDWD [SEQ ID NO 2795], the IC50 is < 100 µM.

Consider TGEWWPCWVAEVGELCDLERGP [SEQ ID NO 2771], for which the IC50 was < 100 µM.

On to SGKTQMWNPCYVAKVGELCDLV [SEQ ID NO 2812], for which the IC50 is < 100 µM.

Turning to WWPCWIAQVGELCDLEEESRES [SEQ ID NO 2781], the IC50 was < 100 µM.

Take SWRFLWQDCGRAHVGELCDL [SEQ ID NO 2776]: the IC50 is < 100 µM.

KGSSWFPCYFAQVGDLCDLY (disulfide 8-17 (inferred)) [SEQ ID NO 2817]: the IC50 was < 100 µM.

Take WWPCDFAQIGELCDLGPRFTGE [SEQ ID NO 2807]: the concentration for half-maximal inhibition (IC50) is < 100 µM.

As to MGDSSSWFPCWMAQLGELCDME [SEQ ID NO 2789], the IC50 was < 100 µM.

Consider WTGWSAFYPCSIANLGELCDLD [SEQ ID NO 2799], for which the half-maximal inhibitory concentration (IC50) is < 100 µM.

For WWPCEWARIGELCDLE (disulfide 4-13 (inferred)) [SEQ ID NO 2816], the half-maximal inhibitory concentration (IC50) is < 100 µM.

As for SLAHRSWYPCWLAQVGELCDLD [SEQ ID NO 2794], the IC50 is < 100 µM.

Take AEYSGRYDCYIAKVGELCDI [SEQ ID NO 2775]: the IC50 was < 100 µM.

With LQIRKLWACRIDLVGPFCLL (disulfide 9-18 (inferred)) [SEQ ID NO 2774], the IC50 was < 100 µM.

Regarding RLVYDCLFAQVGDLCEVIS [SEQ ID NO 2768], the IC50 was < 100 µM.

For NRWWHPCWMARVGELCDLEPDA [SEQ ID NO 2777], the IC50 was < 100 µM.

Consider WWPCWVAKLGELCDLEGDASRV [SEQ ID NO 2778], for which the IC50 is < 100 µM.

As to KWAWNPCYIARLGELCDLVEPE [SEQ ID NO 2782], the IC50 is < 100 µM.

Regarding ERRWYPCWLASVGELCDLDMGD [SEQ ID NO 2791], the 50% inhibitory concentration (IC50) is < 100 µM.

On to FHPCWRALLGELCDLETALGPS [SEQ ID NO 2773], for which the IC50 is < 100 µM.

With DKAGPNFYPCWLAHVGELCDQA [SEQ ID NO 2813], the IC50 is < 100 µM.

Turning to SYMHDCFMAQVGDLCDRFIS (disulfide 6-15 (inferred)) [SEQ ID NO 2780], the IC50 is < 100 µM.

B1: SEQ ID NO 2827 (peptide)
peptide: CYMHDCFMAQVGDLCDRFIS
modifications: not fully specified (bridges); also: disulfide between two of the three cysteines, pairing not given here
Regarding B1, the IC50 is < 100 µM.

Regarding HRWYPCWLAHLGELCDLDPMS [SEQ ID NO 2796], the half-maximal inhibitory concentration (IC50) was < 100 µM.

In the case of PTLITWYDCLFAEVGELCDM [SEQ ID NO 2784], the IC50 is < 100 µM.

WYPCWLAQVGELCDRE (disulfide 4-13 (inferred)) [SEQ ID NO 2818]: the IC50 was < 100 µM.

As to WYPCWLAKVGELCDQE [SEQ ID NO 2821], the IC50 is < 100 µM.

For the molecule MFRYYPCWIASIGELCDLEWGV (disulfide 7-16 (inferred)) [SEQ ID NO 2790], the IC50 was < 100 µM.

On to FYPCWIAFVGELCDLE [SEQ ID NO 2797], for which the IC50 was < 100 µM.

As to SWHAETWYPCWLAQVGELCDLD [SEQ ID NO 2810], the IC50 is < 100 µM.

Regarding RAWWWPCELAQVGELCDLEPSS [SEQ ID NO 2820], the IC50 is < 100 µM.

As to TNGVLDWWPCWMAQVGELCDLD [SEQ ID NO 2801], the IC50 is < 100 µM.

With AYYPCELAQLGELCDLYNI [SEQ ID NO 2803], the IC50 was < 100 µM.

AQVWYPCWLAKVGELCDLDQWN (disulfide 7-16 (inferred)) [SEQ ID NO 2786]: the IC50 is < 100 µM.

WWPCWIAQVGELCDLDGPGRPT [SEQ ID NO 2767]: the half-inhibitory concentration (IC50) was < 100 µM.

As for ARTQGWYDCLFAQVGELCDL [SEQ ID NO 2772], the IC50 was < 100 µM.

For the molecule WWPCWIADLGELCDLEGPPRGR (disulfide 4-13 (inferred)) [SEQ ID NO 2783], the 50% inhibitory concentration (IC50) was < 100 µM.

For WGGRYWCWMAKLGDLCDLEDEW [SEQ ID NO 2766], the IC50 is < 100 µM.

Turning to RWDYWPCYIAQVGELCDLEVYE [SEQ ID NO 2793], the IC50 is < 100 µM.

Turning to WFPCWLAKVGELCDRDDLAGPS [SEQ ID NO 2815], the IC50 is < 100 µM.

For the molecule RYVPDCLKAQVGDLCDFFAW [SEQ ID NO 2822], the half-maximal inhibitory concentration (IC50) is < 100 µM.

WYPCWVAQLGELCDLE [SEQ ID NO 2792]: the IC50 was < 100 µM.

Take WYPCWVAKLGELCDLE [SEQ ID NO 2802]: the IC50 was < 100 µM.

Turning to EGHWYPCWIAQLGELCDLDW [SEQ ID NO 2798], the IC50 was < 100 µM.

Consider WYPCWIAQVGELCDLDEVSHGR [SEQ ID NO 2770], for which the IC50 is < 100 µM.

WFPCWMAKVGDLCDVDEHQDPS [SEQ ID NO 2788]: the IC50 is < 100 µM.

Consider WWPCEIAQIGELCDLEWVRHAE (disulfide 4-13 (inferred)) [SEQ ID NO 2806], for which the IC50 was < 100 µM.

For the molecule RDWWLPCEFALIGELCDLERSW [SEQ ID NO 2808], the half-maximal inhibitory concentration (IC50) was < 100 µM.

As for AGFRGRWWPCEYAQVGELCDLE [SEQ ID NO 2814], the IC50 is < 100 µM.

For the molecule WRILWMQQCWRSHVVNQCAL [SEQ ID NO 2769], the IC50 is < 100 µM.

Take NDHTAWWPCYFAQVGDLCDLV [SEQ ID NO 2805]: the half-maximal inhibitory concentration (IC50) was < 100 µM.

Take FGGKMDWYPCWIANLGELCDLK [SEQ ID NO 2787]: the IC50 is < 100 µM.

Take WYPCEFAQLGELCDLLPFPYPA [SEQ ID NO 2779]: the IC50 is < 100 µM.

On to RGVYFPCWLAKVGDLCDSDEF [SEQ ID NO 2819], for which the IC50 is < 100 µM.

Turning to EWFHDCFLAKVGDLCDLFLW [SEQ ID NO 2811], the IC50 is < 100 µM.

As for KWFHDCFLAKVGDLCDLFLW [SEQ ID NO 2864], the IC50 was < 100 µM.

In the case of EISNWFLDCMFADVGDLCDL [SEQ ID NO 2785], the half-inhibitory concentration (IC50) is < 100 µM.
